Test results as given in patent US20240092836A1.
Bridges are numbered along the chain shown (N, C = ends). Primed or numbered codes have the meaning given here. Where no end group is shown, it is not given here. The star is where a group is joined. Biotin = O=C1N[C@H]2[C@H](CS[C@H]2CCCCC(=O)*)N1; PEG4 = NCCOCCOCCOCCOCCC(=O)O; PEG4′ = not defined here

Assays:
[1] = biological target: Recombinant Human CTLA4-Fc chimera (R&D systems) (human) (UniProt P16410); assay: ELISA, purified MBP fusion on immobilised CTLA-4
[2] = biological target: Recombinant Human CTLA4-Fc chimera (R&D systems) (human) (UniProt P16410); assay: ELISA EC50, purified MBP fusions
[3] = biological target: Recombinant Human CTLA4-Fc chimera (R&D systems) (human) (UniProt P16410); assay: ELISA, signal over SA
[4] = biological target: Recombinant Human CTLA4-Fc chimera (R&D systems) (human) (UniProt P16410); assay: BLItz (BLI), biotinylated CTLA-4 on SA chip, MBP fusion as analyte
[5] = biological target: Recombinant Human CTLA4-Fc chimera (R&D systems) (human) (UniProt P16410); assay: BLItz (BLI), synthetic biotinylated peptides
[6] = biological target: Recombinant Human CTLA4-Fc chimera (R&D systems) (human) (UniProt P16410); assay: BLItz (BLI), biotinylated peptide on SA chip, CTLA-4 protein as analyte

EC50 [1] | ELISA S/N(SA) [3] | Binder | other results
222 nM | – | GGCMHPFLPVASHHFCGR (peptide, not shown: large carriers; small tags and cut ends) [C4-302mat-3-1-22] | –
82 nM | – | GGCLHPFLPIVSHHFCGR (peptide, not shown: large carriers; small tags and cut ends) [C4-302mat-3-100-44] | fold improvement of affinity over the original clone [2]: 50 fold
322 nM | – | GGCMHPFLPILSHHFCAG (peptide, not shown: large carriers; small tags and cut ends) [C4-302mat-3-1-32] | –
85 nM | – | GGCMHPFLPVVSRHFCGR (peptide, not shown: large carriers; small tags and cut ends) [C4-302mat-3-1-12] | fold improvement of affinity over the original clone [2]: 50 fold
703 nM | – | GGCKHPYLPVASHHFCRG (peptide, not shown: large carriers; small tags and cut ends) [C4-302mat-3-1-10] | –
300 nM | – | GGCRHPFLPIVSRHFCRG (peptide, not shown: large carriers; small tags and cut ends) [C4-302mat-3-1-45] | –
– | 3.4 | GGCWHPVLPIRSGHFCSR (peptide, not shown: large carriers; small tags and cut ends) [C4m3127-4th-NNS6-95] | –
189 nM | – | GGCMHPFLPIVSHHFCGS (peptide, not shown: large carriers; small tags and cut ends) [C4-302mat-2-100-27] | –
– | 4.4 | GGCLHPFLPILSLHFCPF (peptide, not shown: large carriers; small tags and cut ends) [C4m3127-4th-NNS6-20] | –
– | 3.1 | GGCWHPVLPIRSDHFCCR (peptide, not shown: large carriers; small tags and cut ends) [C4m#19-5th2w-NNS6-41] | –
– | 4.6 | GGCLHPWLPIVSCHFCPR (peptide, not shown: large carriers; small tags and cut ends) [C4m#19-5th2w-NNS6-68] | –
– | 4.5 | GGCLHPYLPIFSVHFCAL (peptide, not shown: large carriers; small tags and cut ends) [C4m#19-5th2w-NNS6-87] | –
3920 nM | – | GGCMHPFLLVVSHHFCGG (peptide, not shown: large carriers; small tags and cut ends) [H12SSI-Ctla4-3-02 (MBP fusion)] | Kd [4]: 3880 nM; koff [4]: 0.0123 s⁻¹; kon [4]: 3180 M⁻¹ s⁻¹
225 nM | – | GGCMHPFLPVVSHHFCGR (peptide, not shown: large carriers; small tags and cut ends) [C4-302mat-3-100-37] | –
832 nM | – | GGCKHPFLPVVSHHFCGG (peptide, not shown: large carriers; small tags and cut ends) [C4-302mat-3-100-9] | –
– | 4 | GGCMHPYLPIRSFHFCSC (peptide, not shown: large carriers; small tags and cut ends) [C4m#19-5th4w-NN6-49] | –
1490 nM | – | GGCMHPFLRVVSHHFCGG (peptide, not shown: large carriers; small tags and cut ends) [C4-302mat-1-1-37] | –
– | – | {Biotin-PEG4}-KCMHPFLPIVSHHFCER (disulfide 2-15) [biotinylated clone #19: Biotin-PEG4-…] | fold higher affinity than the original clone (H12SSI-Ctla4-3-02) [5]: 3 fold; Kd [6]: 61.8 nM; koff [6]: 0.0128 s⁻¹; kon [6]: 208000 M⁻¹ s⁻¹
217 nM | – | GGCMHPYLPVISHHFCGR (peptide, not shown: large carriers; small tags and cut ends) [C4-302mat-3-100-12] | –
187 nM | – | GGCMHPFLPVVSHHFCGA (peptide, not shown: large carriers; small tags and cut ends) [C4-302mat-3-1-48] | –
– | 3.4 | GGCFHPFLPIQSRHFCCR (peptide, not shown: large carriers; small tags and cut ends) [C4m#19-5th2w-NNS6-93] | –
– | 4.4 | GGCRHPFLPIFSVHFCPF (peptide, not shown: large carriers; small tags and cut ends) [C4m#19-5th2w-NNS6-66] | –

EC50 [1] | ELISA S/N(SA) [3] | Binder | other results
– | 4 | GGCFHPFLPIRSHHFCML (peptide, not shown: large carriers; small tags and cut ends) [C4m#19-5th4w-NN6-40] | –
– | – | {Biotin-PEG4′}-KCMHPFLLVVSHHFC (disulfide 2-15) [biotinylated H12SSI-Ctla4-3-02: Biotin-PEG4-…] | Kd [6]: 191 nM; koff [6]: 0.022 s⁻¹; kon [6]: 115000 M⁻¹ s⁻¹
1040 nM | – | GGCMHPFLPVVSHHFCGG (peptide, not shown: large carriers; small tags and cut ends) [C4-302mat-1-1-24] | –
889 nM | – | GGCVHPFLPVVSHHFCRG (peptide, not shown: large carriers; small tags and cut ends) [C4-302mat-3-100-20] | –
674 nM | – | GGCMHPFLPVVSRHFCGG (peptide, not shown: large carriers; small tags and cut ends) [C4-302mat-3-1-5] | –
352 nM | – | GGCMHPFLPVASHHFCAG (peptide, not shown: large carriers; small tags and cut ends) [C4-302mat-3-100-27] | –
474 nM | – | GGCLHPFLPVVSHHFCGD (peptide, not shown: large carriers; small tags and cut ends) [C4-302mat-2-1-2] | –
– | 3.6 | GGCLHPFLPIVSWHFCPC (peptide, not shown: large carriers; small tags and cut ends) [C4m#19-5th2w-NNS6-80] | –
– | 4.1 | GGCMHPSLPIWSWHFCPH (peptide, not shown: large carriers; small tags and cut ends) [C4m3127-4th-NNS6-19] | –
867 nM | – | GGCLHPFLPLVSHHFCGG (peptide, not shown: large carriers; small tags and cut ends) [C4-302mat-2-1-38] | –
4180 nM | – | GGCMHPFLQVVSHHFCGG (peptide, not shown: large carriers; small tags and cut ends) [C4-302mat-2-100-4] | –
– | 4.3 | GGCCHPWLPIRSVHFCPF (peptide, not shown: large carriers; small tags and cut ends) [C4m#19-5th2w-NNS6-61] | –
– | 4.6 | GGCSHPYLPIHSRHFCLS (peptide, not shown: large carriers; small tags and cut ends) [C4m3127-4th-NNS6-70] | –
342 nM | – | GSCMHPFLPVASRHFCGR (peptide, not shown: large carriers; small tags and cut ends) [C4-302mat-3-1-31] | –
1640 nM | – | GGCMHPYLPVISHHFCGG (peptide, not shown: large carriers; small tags and cut ends) [C4-302mat-2-1-27] | –
288 nM | – | GGCMHPFLPVASHHFCGG (peptide, not shown: large carriers; small tags and cut ends) [C4-302mat-1-1-35] | –
369 nM | – | GGCMHPFLPVVSHHFCRG (peptide, not shown: large carriers; small tags and cut ends) [C4-302mat-2-100-18] | –
– | 3.8 | GGCRHPFLPIFSWHFCAV (peptide, not shown: large carriers; small tags and cut ends) [C4m#19-5th4w-NN6-80] | –
668 nM | – | GGCMHPFLQTVSHHFCGG (peptide, not shown: large carriers; small tags and cut ends) [C4-302mat-3-1-35] | –
– | 3.5 | GGCWHPVLPIRSIHFCGC (peptide, not shown: large carriers; small tags and cut ends) [C4m3127-4th-NNS6-37] | –
826 nM | – | GGCMHPFLPVTSHHFCGG (peptide, not shown: large carriers; small tags and cut ends) [C4-302mat-2-1-3] | –
160 nM | – | GGCMHPFLPIASLHFCGR (peptide, not shown: large carriers; small tags and cut ends) [C4-302mat-3-1-23] | –
